Experiment [1] addresses rNcSRS2-ST (recombinant Neospora caninum SRS2, residues 54-401, with C-terminal Twin-Strep-tag) (Neospora caninum). Description: SEC; analytical SEC of the re-injected main peak, Superdex 200 Increase 10/300 GL, 0.1 M Tris-Cl pH 8.0, 0.15 M NaCl, 1 mM EDTA, 0.5 ml/min; MW estimated from calibration with LMW and HMW kits; self-association (dimer).
In experiment [2] the target is rNcSAG1-ST (recombinant Neospora caninum SAG1, residues 31-317, with C-terminal Twin-Strep-tag) (Neospora caninum). Described as above.
Experiment [3] has as its target rNcSRS2* (recombinant Neospora caninum SRS2, residues 54-401, Strep-tag removed by enterokinase) (Neospora caninum). The experiment is described as follows: SEC; preparative SEC of the proteins after removal of the Strep-tag with enterokinase, 0.1 M Tris-Cl pH 8.0, 0.15 M NaCl, 1 mM EDTA; unique peak slightly shifted towards smaller size; self-association (dimer). (In general: Size exclusion chromatography separates by hydrodynamic size, large species first.)

For experiment [4], the target named is rNcSAG1* (recombinant Neospora caninum SAG1, residues 31-317, Strep-tag removed by enterokinase) (Neospora caninum). Described as above.

The stoichiometry N is a count of units in the complex or per binding partner. In the case of “rNcSRS2-ST (recombinant Neospora caninum SRS2, residues 54-401, with C-terminal Twin-Strep-tag) (domain or fragment)”, the stoichiometry N in experiment [1] is 2.
On to “rNcSAG1-ST (recombinant Neospora caninum SAG1, residues 31-317, with C-terminal Twin-Strep-tag) (domain or fragment)”, for which the stoichiometry N in experiment [2] was 2.
Turning to “rNcSRS2* (recombinant Neospora caninum SRS2, residues 54-401, Strep-tag removed by enterokinase) (domain or fragment)”, the stoichiometry N in experiment [3] was 2.
Turning to “rNcSAG1* (recombinant Neospora caninum SAG1, residues 31-317, Strep-tag removed by enterokinase) (domain or fragment)”, the stoichiometry N in experiment [4] came to 2.

These data come from article PMC12365351.
